Measured values: paper PMC5960627 (Biochemical pharmacology, 2018)

The binders below were run against Calmodulin (UniProt P0DP23 1-149) (assay: other fluorescence titration).
With YTLIWKALKKAYEIQKNK (domain or fragment) [BSAT1R_(215-232), FRET biosensor with AT1R a.a. 215-232 (part of SMD3) between EYFPc and ECFP] the Kd was 1.05 µM.
With AKRYALQLLKAIPPKAQSH (domain or fragment) [BSAT1R_(309-327mut), FRET biosensor with mutant AT1R a.a. 309-327 (SMD4JM) between EYFPc and ECFP] the Kd was 6.6 µM.
DRYLAIVHPMKSRLRRT (domain or fragment) [BSAT1R_(125-141), FRET biosensor with AT1R a.a. 125-141 (SMD2) between EYFPc and ECFP] was tested, and the Kd was 13.9 µM.
For DQALAIVHPMKSQLRQT (domain or fragment) [BSAT1R_(125-141mut), FRET biosensor with mutant AT1R a.a. 125-141 (SMD2) between EYFPc and ECFP], the Kd was greater than 318 µM.
FKRYFLQLLKYIPPKAKSH (domain or fragment) [BSAT1R_(309-327), FRET biosensor with AT1R a.a. 309-327 (SMD4JM) between EYFPc and ECFP] was tested, and the Kd was 0.51 µM.
YTLIWKALKKAYEIQKNKPRNDDIFKII (domain or fragment) [BSAT1R_(215-242), FRET biosensor with AT1R a.a. 215-242 (entire SMD3) between EYFPc and ECFP] showed a Kd of 0.36 µM.
YTLIAKALKKAAEIQKNQPRNDDIAKII (domain or fragment) [BSAT1R_(215-242mut), FRET biosensor with mutant AT1R a.a. 215-242 (SMD3) between EYFPc and ECFP] gave a Kd of 4.52 µM.
